{"source": "patent US9267116B2", "about": "“Amino acid dehydrogenase, and process for producing L-amino acid, 2-oxo acid or D-amino acid” (KANEKA CORPORATION, priority 2008, dated 2016)", "molecules": {"B1": {"name": "purified amino acid dehydrogenase: amino acid dehydrogenase purified from Rhodococcus qingshengii strain KNK2108 (Example 1), SEQ ID NO:1, classified as phenylalanine dehydrogenase (protein, listed as Rhodococcus qingshengii)", "chain": "MSIDDELRWDGELTVTRHDRETGTTFVIRIDSTRLGPASGGTRAAHYPSIGHALADAGKLAGAMTLKMAVSDLPMGGGKSVIALPAPRNQIDAATWSRILGIHAENIDKLEGNYWTGPDVNTNSSDMDQLSRTTRYVFGRSVDKGGAGSSAHATALGVFEAMKATARRRGLGTLDGRTVLVQGLGAVGGDVVRLAAQAGARLLVADTDPQRLEAASLAGHTVVPAGEVLRTPCDLFAPCAMGGIIDFAAAASIPTLAVAGAANNILTDAAAGEVLRDRGVLCAPDFVANAGGAFHLVGREVLGWNEDYVVERTRGIGRTLDEVYSLSEERGITTEAAALMLARARLSPASTAAAATSAAPAAAAASPA"}}, "experiment": "Properties of the purified amino acid dehydrogenase (specific activity, action temperature and pH), NADH decline at 340 nm", "type": "biochemical, Rhodococcus qingshengii strain KNK2108", "settings": "30° C., pH 9.0, phenylpyruvic acid substrate; 1 unit = 1 μmol NADH consumed in 1 minute", "description": "In the embodiments, the amino acid dehydrogenase activity of the polypeptide can be measured, for example, based on the rate of decline in the absorbance at a wavelength of 340 nm when 1.2 mL of 0.5 M NH3/NH4Cl buffer (pH 9.0), 0.2 mL of 0.1 M sodium carbonate buffer (pH 9.0) containing 3 mM NADH coenzyme, and 0.1 mL of an appropriately diluted enzyme solution are added to 1.5 mL of 0.1 M sodium carbonate buffer (pH 9.0) containing 10 mM phenylpyruvic acid as substrate and a reaction is run for 1 minute at 30° C. In the embodiments, the amino acid dehydrogenase activity was measured using this method unless indicated otherwise.\nThe activity of the amino acid dehydrogenase was measured based on the rate of decline in the absorbance at a wavelength of 340 nm when 1.2 mL of 0.5 M NH3/NH4Cl buffer (pH 9.0), 0.2 mL of 0.1 M sodium carbonate buffer (pH 9.0) that contained 3 mM NADH coenzyme, and 0.1 mL of the appropriately diluted enzyme solution were added to 1.5 mL of 0.1 M sodium carbonate buffer (pH 9.0) that contained 10 mM phenylpyruvic acid substrate and a reaction was carried out for 1 minute at 30° C. 1 unit is defined here as the quantity of enzyme that consumed 1 μmol NADH in 1 minute. The protein was quantified by the Bradford method using BSA as the reference protein.\nThe action temperature range and the optimal temperature were examined. […]"}
{"molecule": "B1", "values": [{"measurement": "specific activity", "result": 204, "unit": "units/mg protein"}]}
